Reference: publication PMC3118421

Biological target: human dimeric IgA2 anti-NIP, wild type (not stated | human | mouse)
Test: rosetting assay

B1: streptococcal IgA-binding M protein Arp4 (M4) (natural protein)
chain: AEIKKPQADSAWNWPKEYNALLKENEELKVEREKYLSYADDKEKDPQYRALMGENQDLRKREGQYQDKIEELEKERKEKQERQEQLERQYQIEADKHYQEQQKKHQQEQQQLEAEKQKLAKDKQISDASRQGLSRDLEASRAAKKELEAEHQKLKEEKQISDASRQGLSRDLEASREAKKKVEADLAALTAEHQKLKEDKQISDASRQGLSRDLEASREAKKKVEADLAEANSKLQALEKLNKELEEGKKLSEKEKAELQARLEAEAKALKEQLAKQAEELAKLKGNQTPNAKVAPQANRSRSAMTQQKRTLPST
percent inhibition of dIgA binding to hFcα/μR (rosettes, Arp4 at 100 μg/mL): 50%
